Laboratory results as given in paper doi:10.1101/2022.02.16.480668 (bioRxiv, 2022).

Target: the molecule itself
Assay: negative-stain electron microscopy of filaments on vesicles

B1: Vps60 (natural protein)
chain: MNRIFGYGNKKSHDQLLQESNQSMNQAQQSLSNRISQLDTQIAQLNFQLQNIQKNLQRSNNKQPSLRKQALKILNKRKQLENMKDSLDSQSWSMTQAQLTNDNLQNTMITINALKQTNNAMKAQYGKINIDKLQDMQDEMLDLIEQGDELQEVLAMNNNSGELDDISDAELDAELDALAQEDFTLPTSENSLGNDMPSYLLGANAPPAFIDEEPNLDTEDKNKALESAQ
modifications: Atto-565 (TFP ester labelling) where fluorescence was read; labeled protein mixed 1:1 with unlabeled protein
B1: binds.
